This note sets out measurements from paper PMC5770569.

Experiment [1] deals with Purified recombinant EGFL7 (Sino Biological Inc.) (human) (UniProt Q9UHF1). Briefly: SPR. A general note: Surface plasmon resonance follows binding to a sensor surface in real time, without labels.
The target in experiment [2] is E7p72, re-synthesized with a Cys for the SPR chip. Briefly: SPR.
The target in experiment [3] is E7p74, re-synthesized with a Cys for the SPR chip. Briefly: SPR.
For experiment [4], the target named is Fluorescein-labeled E7p72. The experiment in a line: flow cytometry on cells. (In flow cytometry, cells or beads pass a laser one at a time.)

What is called koff is a measure of how fast the partners let go of each other. On to “A647-CPMV-PEG viral nanoparticle (control)”, for which the dissociation rate constant (koff) in experiment [1] was determined as 0.00124 s⁻¹.

B1: Purified EGFL7 (SPRimager II experiments and blocking study) (natural protein)
chain: YRPGRRVCAVRAHGDPVSESFVQRVYQPFLTTCDGHRACSTYRTIYRTAYRRSPGLAPARPRYACCPGWKRTSGLPGACGAAICQPPCRNGGSCVQPGRCRCPAGWRGDTCQSDVDECSARRGGCPQRCVNTAGSYWCQCWEGHSLSADGTLCVPKGGPPRVAPNPTGVDSAMKEEVQRLQSRVDLLEEKLQLVLAPLHSLASQALEHGLPDPGSLLVHSFQQLGRIDSLSEQISFLEEQLGSCSCKKDS
As a reminder, the Kd is the equilibrium constant for the complex coming apart. The low end stands for tighter binding, the high end for weaker binding. On to B1, for which the Kd was determined as 13.2 nM in experiment [2] and 14.3 nM in experiment [3]. The same molecule had a percent decrease in the uptake of FITC-E7p72 by EA.hy926 cells with 3x EGFL7 in experiment [4] of 64.5%.
